The values that follow are results of earlier work, collected in publication PMC2775921.

Like-named read-outs stand apart in the source and are kept apart here.

Data set [1] concerns the target IL-2 (Homo sapiens) (UniProt P60568).
Data set [2] shares this target. This is another data set of the same source.

Chain of UniProt P60568 (P60568 21-153): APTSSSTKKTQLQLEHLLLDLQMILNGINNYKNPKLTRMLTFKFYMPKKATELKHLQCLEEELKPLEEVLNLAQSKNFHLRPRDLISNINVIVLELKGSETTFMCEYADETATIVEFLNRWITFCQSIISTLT

For the substance “CD25 (membrane α-chain) (from UniProt P01589)”, in the data set with IL-2 (Homo sapiens) [1], the Kd is 10 nM.
In the case of soluble CD25 (from UniProt P01589), the Kd with IL-2 (Homo sapiens) [2] was 30 nM.
